# Source: publication PMC11352469, “Comprehensive Analysis of Kisspeptin Signaling: Effects on Cellular Dynamics in Cervical Cancer” (Biomolecules, 2024)
# Assays:
# [1] = tested on: HeLa cells; assay: Cytotoxicity MTT assay, HeLa; type: cell-based, human; details: 48 h
# Experimental: (§1) Human cervical adenocarcinoma (HeLa) cells (cat# CRM-CCL-2) were obtained from the American Type Culture Collection (ATCC, Manassas, VA, USA). Human breast adenocarcinoma (MCF7) cells, Human prostate adenocarcinoma (PC3) cells, Human gastric adenocarcinoma (AGS) cells and Human Embryonic Kidney cells (HEK293T) were kindly provided by the Universidad Industrial de Santander. HeLa, MCF7, and HEK293T cells were cultured in DMEM medium supplemented with 10% FBS (fetal bovine serum), 1% penicillin/streptomycin. PC3 and AGS cells were cultured in RPMI medium supplemented with 10% FBS, 1% penicillin/streptomycin. All cells were maintained at 37 °C and 5% CO2.
# (§2) 15,000 cells per well were plated in 96-well plates (Greiner, Fisher Scientific, Waltham, MA, USA) using a fully complemented medium, and incubated at 37 °C. Following a 24 h period, cells underwent serum starvation before being treated with KP10 and its analogs at concentrations of 10, 100, 250, and 500 nM for 48 h. Subsequently, each well received 100 µL of MTT solution (0.5 mg/mL), and the plates were incubated at 37 °C for 3 h. After adding the MTT solvent and further incubation for 15 min, the resultant absorbance was measured at 590 nm using a BioTech RT-2100C microplate reader. Data analysis was performed using Prism 8.0 software (GraphPad).
# [2] = tested on: HEK293T cells; assay: Cytotoxicity MTT assay, HEK293T; type: cell-based, human; details: 48 h
# Experimental: as §1, §2
# [3] = tested on: PC3 cells; assay: Cytotoxicity MTT assay, PC3; type: cell-based, human; details: 48 h
# Experimental: as §1, §2
# [4] = molecular target: T1, kisspeptin receptor (Homo sapiens, UniProt Q969F8)
# [5] = molecular target: T1, kisspeptin receptor; remark: listed apart in the source
# T1 sequence (Q969F8 whole entry): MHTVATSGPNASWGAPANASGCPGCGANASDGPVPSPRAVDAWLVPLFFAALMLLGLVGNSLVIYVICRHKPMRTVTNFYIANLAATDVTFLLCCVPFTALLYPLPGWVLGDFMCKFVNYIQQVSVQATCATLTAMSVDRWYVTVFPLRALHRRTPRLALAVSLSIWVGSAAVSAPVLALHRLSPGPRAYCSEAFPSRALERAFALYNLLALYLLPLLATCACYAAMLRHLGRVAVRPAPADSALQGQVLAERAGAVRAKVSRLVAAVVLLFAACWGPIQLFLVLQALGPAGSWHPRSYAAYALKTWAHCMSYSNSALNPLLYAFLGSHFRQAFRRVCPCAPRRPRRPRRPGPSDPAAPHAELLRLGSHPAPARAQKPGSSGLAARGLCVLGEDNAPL
Molecule,"EC50 of Gαz pathway activation, effector-RlucII / rGFP-CAAX BRET biosensor in transfected HeLa cells, 10 min stimulation [4]","EC50 of β-arrestin1 recruitment, BRET biosensor in transfected HeLa cells [5]","EC50 of β-arrestin2 recruitment, BRET biosensor in transfected HeLa cells [5]",pIC50 HeLa [1],pIC50 HEK293T [2],pIC50 PC3 [3]
Ala^1-KP10: Ala-Asn-Trp-Asn-Ser-Phe-Gly-Leu-Arg-Phe; KP10 Ala-scan analog (ANWNSFGLRF; printed: Ala-Asn-Trp-Asn-Ser-Phe-Gly-Leu-Arg-Phe),–,–,–,2.483,2.311,2.475
Ala^9-KP10: Tyr-Asn-Trp-Asn-Ser-Phe-Gly-Leu-Ala-Phe; KP10 Ala-scan analog (YNWNSFGLAF; printed: Tyr-Asn-Trp-Asn-Ser-Phe-Gly-Leu-Ala-Phe),–,–,–,2.429,–,2.295

# Second part, led by results:
"EC50 of Gαz pathway activation, effector-RlucII / rGFP-CAAX BRET biosensor in transfected HeLa cells, 10 min stimulation [4]","EC50 of β-arrestin1 recruitment, BRET biosensor in transfected HeLa cells [5]","EC50 of β-arrestin2 recruitment, BRET biosensor in transfected HeLa cells [5]",Molecule,pIC50 HeLa [1],pIC50 HEK293T [2],pIC50 PC3 [3]
646 nM,1190 nM,1430 nM,YNANSFGLRF [Ala^3-KP10],–,–,–
1100 nM,13000 nM,2580 nM,YNWASFGLRF [Ala^4-KP10],–,–,–
